Numbering of substitutions follows the chain as printed.
B1: BAP049-hum11 (antibody, human IgG4 S228P, kappa)
heavy: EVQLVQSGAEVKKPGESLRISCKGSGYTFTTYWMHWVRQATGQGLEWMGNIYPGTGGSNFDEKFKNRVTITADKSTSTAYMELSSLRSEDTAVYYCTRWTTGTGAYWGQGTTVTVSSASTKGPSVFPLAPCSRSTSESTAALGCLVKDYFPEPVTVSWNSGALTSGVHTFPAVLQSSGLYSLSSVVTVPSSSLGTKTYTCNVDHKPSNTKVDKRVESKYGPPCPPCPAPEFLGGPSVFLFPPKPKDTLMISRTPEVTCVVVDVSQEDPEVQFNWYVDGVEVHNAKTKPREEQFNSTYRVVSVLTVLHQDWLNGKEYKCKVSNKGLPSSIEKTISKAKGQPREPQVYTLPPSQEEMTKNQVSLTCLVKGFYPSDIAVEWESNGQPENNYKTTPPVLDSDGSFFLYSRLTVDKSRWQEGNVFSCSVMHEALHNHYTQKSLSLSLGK
light: EIVLTQSPATLSLSPGERATLSCKSSQSLLDSGNQKNFLTWYQQKPGQAPRLLIYWASTRESGVPSRFSGSGSGTDFTFTISSLEAEDAATYYCQNDYSYPYTFGQGTKVEIKRTVAAPSVFIFPPSDEQLKSGTASVVCLLNNFYPREAKVQWKVDNALQSGNSQESVTEQDSKDSTYSLSSTLTLSKADYEKHKVYACEVTHQGLSSPVTKSFNRGEC
notes: Humanized mAb
B2: BAP049-hum15 (antibody, human IgG4 S228P, kappa)
heavy chain: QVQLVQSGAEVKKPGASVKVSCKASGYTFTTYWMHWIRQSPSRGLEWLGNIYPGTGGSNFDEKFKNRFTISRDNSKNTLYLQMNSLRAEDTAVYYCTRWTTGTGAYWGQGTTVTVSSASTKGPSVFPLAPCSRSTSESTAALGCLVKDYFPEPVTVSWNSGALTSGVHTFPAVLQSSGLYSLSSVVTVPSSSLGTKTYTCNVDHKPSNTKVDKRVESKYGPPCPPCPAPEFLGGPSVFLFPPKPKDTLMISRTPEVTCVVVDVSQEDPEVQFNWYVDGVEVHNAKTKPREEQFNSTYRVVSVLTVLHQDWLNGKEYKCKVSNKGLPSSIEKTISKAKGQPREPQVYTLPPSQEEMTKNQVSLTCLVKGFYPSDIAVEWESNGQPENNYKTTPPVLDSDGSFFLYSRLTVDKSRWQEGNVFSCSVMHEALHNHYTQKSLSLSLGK
light chain: B1 light with A9D, T10F, L11Q, L13V, S14T, G16K, R18K, A19V, L21I, S22T
notes: also called clone 15
B3: BAP049-hum10 (antibody, human IgG4 S228P, kappa)
heavy: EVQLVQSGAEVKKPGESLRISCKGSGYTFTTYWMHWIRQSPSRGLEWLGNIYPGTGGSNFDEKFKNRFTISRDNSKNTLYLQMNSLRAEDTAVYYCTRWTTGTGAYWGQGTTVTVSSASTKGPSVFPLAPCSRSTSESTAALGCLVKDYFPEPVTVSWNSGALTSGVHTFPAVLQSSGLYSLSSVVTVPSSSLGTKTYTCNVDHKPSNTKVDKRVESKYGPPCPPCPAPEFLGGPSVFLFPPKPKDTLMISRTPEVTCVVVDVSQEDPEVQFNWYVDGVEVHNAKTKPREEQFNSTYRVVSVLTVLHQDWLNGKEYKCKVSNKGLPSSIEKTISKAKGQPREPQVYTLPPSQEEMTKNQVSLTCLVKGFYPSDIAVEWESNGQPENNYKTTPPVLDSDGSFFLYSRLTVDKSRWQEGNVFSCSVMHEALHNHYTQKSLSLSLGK
light: B1 light
notes: Humanized mAb
B4: BAP049-hum07 (antibody, human IgG4 S228P, kappa)
heavy chain: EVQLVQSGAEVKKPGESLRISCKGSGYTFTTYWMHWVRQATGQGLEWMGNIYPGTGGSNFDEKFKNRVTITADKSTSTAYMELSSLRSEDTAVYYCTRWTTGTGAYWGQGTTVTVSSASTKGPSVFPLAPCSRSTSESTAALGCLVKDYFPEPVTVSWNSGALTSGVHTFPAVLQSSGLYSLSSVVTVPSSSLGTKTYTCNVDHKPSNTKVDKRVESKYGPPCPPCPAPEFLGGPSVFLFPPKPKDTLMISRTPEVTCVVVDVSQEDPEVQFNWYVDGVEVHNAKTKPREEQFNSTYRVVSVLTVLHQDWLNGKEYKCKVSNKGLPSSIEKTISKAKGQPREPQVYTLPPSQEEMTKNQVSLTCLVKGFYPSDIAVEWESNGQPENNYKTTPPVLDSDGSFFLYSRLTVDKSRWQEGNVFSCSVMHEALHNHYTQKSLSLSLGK
light chain: B1 light with Q48K, R51K
notes: also called clone 7
B5: BAP049-hum05 (antibody, human IgG4 S228P, kappa, V domains shown)
VH: EVQLVQSGAEVKKPGESLRISCKGSGYTFTTYWMHWVRQATGQGLEWMGNIYPGTGGSNFDEKFKNRVTITADKSTSTAYMELSSLRSEDTAVYYCTRWTTGTGAYWGQGTTVTVSS
VL: EIVLTQSPATLSLSPGERATLSCKSSQSLLDSGNQKNFLTWYQQKPGKAPKLLIYWASTRESGVPSRFSGSGSGTDFTFTISSLQPEDIATYYCQNDYSYPYTFGQGTKVEIKR
notes: Humanized mAb
B6: BAP049-hum06 (antibody, human IgG4 S228P, kappa)
heavy chain: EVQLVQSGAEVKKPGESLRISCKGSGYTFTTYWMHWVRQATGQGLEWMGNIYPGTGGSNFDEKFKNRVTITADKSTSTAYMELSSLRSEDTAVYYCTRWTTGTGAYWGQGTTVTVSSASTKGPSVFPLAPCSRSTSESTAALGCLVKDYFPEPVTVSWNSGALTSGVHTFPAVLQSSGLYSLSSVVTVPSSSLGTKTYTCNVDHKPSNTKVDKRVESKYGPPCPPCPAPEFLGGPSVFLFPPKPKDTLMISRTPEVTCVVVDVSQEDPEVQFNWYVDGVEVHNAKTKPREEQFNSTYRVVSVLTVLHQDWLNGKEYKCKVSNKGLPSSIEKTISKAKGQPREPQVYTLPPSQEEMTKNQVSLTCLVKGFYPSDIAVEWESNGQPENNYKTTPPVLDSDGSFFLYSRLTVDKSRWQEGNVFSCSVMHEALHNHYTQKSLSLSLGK
light chain: DIVMTQTPLSLPVTPGEPASISCKSSQSLLDSGNQKNFLTWYQQKPGQAPRLLIYWASTRESGVPSRFSGSGSGTDFTFTISSLEAEDAATYYCQNDYSYPYTFGQGTKVEIKRTVAAPSVFIFPPSDEQLKSGTASVVCLLNNFYPREAKVQWKVDNALQSGNSQESVTEQDSKDSTYSLSSTLTLSKADYEKHKVYACEVTHQGLSSPVTKSFNRGEC
notes: also called clone 6
B7: BAP049-hum08 (antibody, human IgG4 S228P, kappa)
heavy: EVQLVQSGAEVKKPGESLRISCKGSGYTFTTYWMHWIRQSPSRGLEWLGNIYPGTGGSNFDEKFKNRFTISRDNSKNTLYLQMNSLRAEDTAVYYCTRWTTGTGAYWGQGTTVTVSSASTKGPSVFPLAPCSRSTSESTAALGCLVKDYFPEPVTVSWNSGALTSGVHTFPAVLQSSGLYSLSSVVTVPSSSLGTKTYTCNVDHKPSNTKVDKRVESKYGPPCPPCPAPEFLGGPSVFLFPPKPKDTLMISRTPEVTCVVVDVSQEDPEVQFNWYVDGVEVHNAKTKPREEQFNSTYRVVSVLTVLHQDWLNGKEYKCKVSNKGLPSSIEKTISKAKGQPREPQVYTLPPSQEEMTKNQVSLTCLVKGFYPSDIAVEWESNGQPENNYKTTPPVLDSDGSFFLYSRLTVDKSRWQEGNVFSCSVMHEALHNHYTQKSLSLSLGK
light: B1 light with A9D, T10F, L11Q, L13V, S14T, G16K, R18K, A19V, L21I, S22T
notes: Humanized mAb
B8: BAP049-hum04 (antibody, human IgG4 S228P, kappa, V domains shown)
VH: EVQLVQSGAEVKKPGESLRISCKGSGYTFTTYWMHWIRQSPSRGLEWLGNIYPGTGGSNFDEKFKNRFTISRDNSKNTLYLQMNSLRAEDTAVYYCTRWTTGTGAYWGQGTTVTVSS
VL: B5 VL
notes: also called clone 4
B9: BAP049-hum09 (antibody, human IgG4 S228P, kappa)
heavy: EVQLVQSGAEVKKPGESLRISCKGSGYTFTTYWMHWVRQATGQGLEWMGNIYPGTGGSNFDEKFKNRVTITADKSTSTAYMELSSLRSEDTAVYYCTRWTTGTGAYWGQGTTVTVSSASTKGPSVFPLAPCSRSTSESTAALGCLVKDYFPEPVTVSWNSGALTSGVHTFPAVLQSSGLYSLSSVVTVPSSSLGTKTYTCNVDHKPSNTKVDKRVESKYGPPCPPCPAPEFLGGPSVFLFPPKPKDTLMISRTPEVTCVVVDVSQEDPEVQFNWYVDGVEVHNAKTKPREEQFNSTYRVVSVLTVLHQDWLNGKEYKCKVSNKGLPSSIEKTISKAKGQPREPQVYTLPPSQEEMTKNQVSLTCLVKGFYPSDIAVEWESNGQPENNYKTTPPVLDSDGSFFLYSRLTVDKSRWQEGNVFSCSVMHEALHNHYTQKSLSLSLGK
light: B1 light with A9D, T10F, L11Q, L13V, S14T, G16K, R18K, A19V, L21I, S22T
notes: Humanized mAb
B10: BAP049-hum01 (antibody, human IgG4 S228P, kappa, V domains shown)
VH: B5 VH
VL: B5 VL with K48Q, K51R, D76E, F79L, E87D, I89F
notes: Humanized mAb
B11: BAP049-hum14 (antibody, human IgG4 S228P, kappa)
heavy chain: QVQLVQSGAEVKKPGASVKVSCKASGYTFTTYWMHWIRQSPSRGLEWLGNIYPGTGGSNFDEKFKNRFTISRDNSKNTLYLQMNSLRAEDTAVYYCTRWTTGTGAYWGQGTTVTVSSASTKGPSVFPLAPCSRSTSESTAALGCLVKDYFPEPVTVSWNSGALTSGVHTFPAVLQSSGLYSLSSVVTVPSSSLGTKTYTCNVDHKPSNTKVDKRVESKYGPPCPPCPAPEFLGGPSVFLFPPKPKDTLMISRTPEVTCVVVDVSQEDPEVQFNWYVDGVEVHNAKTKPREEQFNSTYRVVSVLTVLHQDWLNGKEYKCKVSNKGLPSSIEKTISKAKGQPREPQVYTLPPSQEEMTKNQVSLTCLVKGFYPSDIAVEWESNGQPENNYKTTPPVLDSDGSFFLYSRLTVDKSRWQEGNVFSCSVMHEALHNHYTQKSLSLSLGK
light chain: B1 light
notes: also called clone 14
B12: BAP049-hum02 (antibody, human IgG4 S228P, kappa, V domains shown)
VH: B5 VH
VL: DIQMTQSPSSLSASVGDRVTITCKSSQSLLDSGNQKNFLTWYQQKPGQAPRLLIYWASTRESGIPPRFSGSGYGTDFTLTINNIESEDAAYYFCQNDYSYPYTFGQGTKVEIKR
notes: also called clone 2
B13: BAP049-hum12 (antibody, human IgG4 S228P, kappa, V domains shown)
VH: B5 VH
VL: DIQMTQSPSSLSASVGDRVTITCKSSQSLLDSGNQKNFLTWYLQKPGQSPQLLIYWASTRESGVPSRFSGSGSGTDFTFTISSLEAEDAATYYCQNDYSYPYTFGQGTKVEIKR
notes: also called clone 12
B14: BAP049-hum13 (antibody, human IgG4 S228P, kappa)
heavy chain: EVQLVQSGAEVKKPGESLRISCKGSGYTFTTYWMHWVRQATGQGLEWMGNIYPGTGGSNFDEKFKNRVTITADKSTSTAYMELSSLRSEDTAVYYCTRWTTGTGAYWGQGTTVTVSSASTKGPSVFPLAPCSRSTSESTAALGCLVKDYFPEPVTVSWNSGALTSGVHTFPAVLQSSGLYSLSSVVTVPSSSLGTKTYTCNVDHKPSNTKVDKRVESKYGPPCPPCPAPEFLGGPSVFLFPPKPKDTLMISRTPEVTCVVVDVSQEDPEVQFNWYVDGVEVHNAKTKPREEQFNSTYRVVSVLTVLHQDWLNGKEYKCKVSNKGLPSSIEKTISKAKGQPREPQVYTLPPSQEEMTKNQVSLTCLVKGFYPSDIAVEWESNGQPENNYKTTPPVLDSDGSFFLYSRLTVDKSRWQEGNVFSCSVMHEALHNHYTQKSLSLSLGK
light chain: B6 light chain with I2V, T7S, P15L, E17Q, Q48K, R51K
notes: also called clone 13
B15: BAP049-hum16 (antibody, human IgG4 S228P, kappa, V domains shown)
VH: B8 VH with I37V, S40A, S42G, R43Q, L48M
VL: EIVLTQSPDFQSVTPKEKVTITCKSSQSLLDSGNQKNFLTWYQQKPGQAPRLLIYWASTRESGVPSRFSGSGSGTDFTFTISSLEAEDAATYYCQNDYSYPYTFGQGTKVEIKR
notes: also called clone 16
B16: BAP049-hum03 (antibody, human IgG4 S228P, kappa, V domains shown)
VH: B8 VH
VL: B12 VL
notes: also called clone 3
B17: BAP049-Clone-E (antibody, human IgG4 S228P, kappa)
heavy: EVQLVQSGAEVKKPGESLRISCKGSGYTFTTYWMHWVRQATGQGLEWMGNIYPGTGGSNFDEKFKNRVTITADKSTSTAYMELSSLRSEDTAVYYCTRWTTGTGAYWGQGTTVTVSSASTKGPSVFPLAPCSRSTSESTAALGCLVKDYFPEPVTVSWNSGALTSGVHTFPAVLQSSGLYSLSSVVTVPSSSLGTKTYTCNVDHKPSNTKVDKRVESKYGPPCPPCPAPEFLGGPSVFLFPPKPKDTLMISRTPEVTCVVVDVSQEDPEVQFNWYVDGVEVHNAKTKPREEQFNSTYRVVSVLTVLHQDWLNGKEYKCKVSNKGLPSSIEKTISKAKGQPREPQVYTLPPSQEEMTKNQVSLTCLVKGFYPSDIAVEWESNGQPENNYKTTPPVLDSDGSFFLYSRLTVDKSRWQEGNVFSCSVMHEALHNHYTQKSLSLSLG
light: B1 light
B18: Chi mAb (Tyr) (antibody, human IgG4 S228P, kappa, V domains shown)
VH: QVQLQQSGSELVRPGASVKLSCKASGYTFTTYWMHWVRQRPGQGLEWIGNIYPGTGGSNFDEKFKNRTSLTVDTSSTTAYMHLASLTSEDSAVYYCTRWTTGTGAYWGQGTTVTVSS
VL: DIVMTQSPSSLTVTAGEKVTMSCKSSQSLLDSGNQKNFLTWYQQKPGQPPKLLIFWASTRESGVPDRFTGSGSVTDFTLTISSVQAEDLAVYYCQNDYSYPYTFGQGTKVEIKR
notes: also called BAP049-chi-Y; Chi (Tyr)
B19: Mu mAb (antibody, V domains shown)
VH: B18 VH with T112L, S117A
VL: DIVMTQSPSSLTVTAGEKVTMSCKSSQSLLDSGNQKNFLTWYQQKPGQPPKLLIFWASTRESGVPDRFTGSGSVTDFTLTISSVQAEDLAVYYCQNDYSYPCTFGGGTKLEIK
notes: Unlabelled when its concentration is varied; also called murine anti-PD-1 mAb BAP049; Mu mAb control

These binders were tested against T1, Programmed Death 1 (PD-1) (UniProt Q15116 25-167, limits assumed) (assay: rank in competition binding against labelled murine mAb BAP049, 2nd experiment).
T1 sequence (Q15116 25-167 limits assumed): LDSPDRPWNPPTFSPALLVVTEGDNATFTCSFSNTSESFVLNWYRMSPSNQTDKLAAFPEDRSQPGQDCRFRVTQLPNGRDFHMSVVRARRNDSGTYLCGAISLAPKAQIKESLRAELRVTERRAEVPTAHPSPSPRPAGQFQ

Row | Binder | Competition Binding 2nd exp. (rank)
1 | B1 | > 4
2 | B2 | 15
3 | B3 | > 4
4 | B4 | > 4
5 | B5 | > 4
6 | B6 | 3
7 | B7 | 4
8 | B8 | 15
9 | B9 | 4
10 | B10 | 2
11 | B11 | 15
12 | B12 | 2
13 | B13 | 16
14 | B14 | 1
15 | B15 | 15
16 | B16 | 14

Each binder was assayed against T1, Programmed Death 1 (PD-1) (assay: cell-based or functional assay).

Row | Binder | ex vivo EC50 for PD-1 blockade (IL-2 change in SEB ex-vivo assay) [µg/mL]
17 | B17 | 0.42

Each binder was assayed against T1, Programmed Death 1 (PD-1) (assay: FACS ligand blocking: binding of PD-L1-Ig to PD-1 at increasing mAb concentration (legend paragraph 212 names 'PD-L1-Ig and PD-L2-Ig' for FIG. 8A)).

Row | Binder | IC50 (read off the curve) [µg/mL]
18 | B3 | ~1
19 | B5 | ~1
20 | B10 | ~1
21 | B18 | ~0.9
22 | B19 | ~0.7

What follows are binders tested against T1, Programmed Death 1 (PD-1) (assay: rank in competition binding against labelled murine mAb BAP049, 1st experiment).

Row | Binder | Competition Binding 1st exp. (rank)
23 | B1 | 4
24 | B2 | 7
25 | B3 | 6
26 | B4 | 7
27 | B5 | 5
28 | B6 | 7
29 | B7 | 7
30 | B8 | 15
31 | B9 | 2
32 | B10 | 7
33 | B11 | 7
34 | B12 | 3
35 | B13 | 8
36 | B14 | 1
37 | B15 | 16
38 | B16 | 8

The binders below were run against T1, Programmed Death 1 (PD-1) (assay: rank among the 16 humanized clones by FACS binding data).

Row | Binder | Ranking FACS data [rank]
39 | B1 | 6
40 | B2 | 6
41 | B3 | 7
42 | B4 | 4
43 | B5 | 5
44 | B6 | 1
45 | B7 | 7
46 | B8 | 14
47 | B9 | 7
48 | B10 | 2
49 | B11 | 16
50 | B12 | 6
51 | B13 | 3
52 | B14 | 6
53 | B15 | 15
54 | B16 | 7
